The values below come from patent publication US11702475B2, “Cysteine engineered fibronectin type III domain binding molecules” (Janssen Biotech, Inc., priority 2013, dated 2023).

The nature of the series: Analytical size exclusion chromatography (percent monomer). In kind it is physicochemical. To be noted: NEM-conjugated cysteine variants; SEC, Abs280 monomer region 5.5-6 minutes vs oligomer region 4-5.3 minutes. The protocol: Size exclusion chromatography was used to determine the aggregation state of the FN3 domains binding EGFR. Aliquots (10 μL) of each purified FN3 domain were injected onto a Superdex 75 5/150 column (GE Healthcare) at a flow rate of 0.3 mL/min in a mobile phase of PBS pH 7.4. Elution from the column was monitored by absorbance at 280 nm.
The percent monomer for each protein was determined by integrating the Abs280 signal and comparing the peak in the monomer region (5.5-6 minutes) to the peaks in the oligomer region (4-5.3 minutes).
(SEC sorts molecules by how far they enter the pores of the column.)

Positions count from the first letter of the chain named.

B1: L7C (conjugate)
chain: LPAPKNCVVSEVTEDSARLSWDDPWAFYESFLIQYQESEKVGEAIVLTVPGSERSYDLTGLKPGTEYTVSIYGVHNVYKDTNMRGLPLSAIFTT
modifications: left off: small tags and cut ends
Consider B1, for which the Percent monomer worked out at 93%.

B2: P24C (conjugate)
chain: B1 chain with C7L, P24C
modifications: left off: small tags and cut ends
On to B2, for which the Percent monomer is reported as 88%.

B3: E43C (conjugate)
chain: B1 chain with C7L, E43C
modifications: left off: small tags and cut ends
B3 gave a Percent monomer of 100%.

B4: M83C (conjugate)
chain: B1 chain with C7L, M83C
modifications: left off: small tags and cut ends
As to B4, the Percent monomer stood at 91%.

B5: P2C (conjugate)
chain: B1 chain with P2C, C7L
modifications: left off: small tags and cut ends
B5: the Percent monomer was determined as 86%.

B6: P4C (conjugate)
chain: B1 chain with P4C, C7L
modifications: left off: small tags and cut ends
B6 came in with a Percent monomer of 100%.

B7: G85C (conjugate)
chain: B1 chain with C7L, G85C
modifications: left off: small tags and cut ends
B7 displayed a Percent monomer of 95%.

B8: A26C (conjugate)
chain: B1 chain with C7L, A26C
modifications: left off: small tags and cut ends
For the molecule B8, the Percent monomer stood at 95%.

B9: F27C (conjugate)
chain: B1 chain with C7L, F27C
modifications: left off: small tags and cut ends
B9: the Percent monomer came to 97%.

B10: A3C (conjugate)
chain: B1 chain with A3C, C7L
modifications: left off: small tags and cut ends
Molecule B10 returned a Percent monomer of 100%.

B11: V77C (conjugate)
chain: B1 chain with C7L, V77C
modifications: left off: small tags and cut ends
B11: the Percent monomer is 92%.

B12: D23C (conjugate)
chain: B1 chain with C7L, D23C
modifications: left off: small tags and cut ends
Turning to B12, the Percent monomer is listed as 100%.

B13: V46C (conjugate)
chain: B1 chain with C7L, V46C
modifications: left off: small tags and cut ends
B13: the Percent monomer amounted to 100%.

B14: G73C (conjugate)
chain: B1 chain with C7L, G73C
modifications: left off: small tags and cut ends
Molecule B14 came in with a Percent monomer of 66%.

B15: R84C (conjugate)
chain: B1 chain with C7L, R84C
modifications: left off: small tags and cut ends
On to B15, for which the Percent monomer worked out at 100%.

B16: D22C (conjugate)
chain: B1 chain with C7L, D22C
modifications: left off: small tags and cut ends
Turning to B16, the Percent monomer stood at 85%.

B17: S52C (conjugate)
chain: B1 chain with C7L, S52C
modifications: left off: small tags and cut ends
Consider B17, for which the Percent monomer turned out to be 100%.

B18: L86C (conjugate)
chain: B1 chain with C7L, L86C
modifications: left off: small tags and cut ends
The molecule B18 came in with a Percent monomer of 83%.

B19: K79C (conjugate)
chain: B1 chain with C7L, K79C
modifications: left off: small tags and cut ends
As to B19, the Percent monomer came out at 100%.

B20: D80C (conjugate)
chain: B1 chain with C7L, D80C
modifications: left off: small tags and cut ends
Consider B20, for which the Percent monomer is listed as 79%.

B21: W25C (conjugate)
chain: B1 chain with C7L, W25C
modifications: left off: small tags and cut ends
The molecule B21 showed a Percent monomer of 76%.

B22: K5C (conjugate)
chain: B1 chain with K5C, C7L
modifications: left off: small tags and cut ends
The molecule B22 registered a Percent monomer of 100%.

B23: Y78C (conjugate)
chain: B1 chain with C7L, Y78C
modifications: left off: small tags and cut ends
Molecule B23 displayed a Percent monomer of 90%.

B24: N76C (conjugate)
chain: B1 chain with C7L, N76C
modifications: left off: small tags and cut ends
In turn, B24 registered a Percent monomer of 94%.

B25: H75C (conjugate)
chain: B1 chain with C7L, H75C
modifications: left off: small tags and cut ends
Molecule B25 displayed a Percent monomer of 100%.

B26: F31C (conjugate)
chain: B1 chain with C7L, F31C
modifications: left off: small tags and cut ends
As for B26, the Percent monomer was 57%.

B27: P87C (conjugate)
chain: B1 chain with C7L, P87C
modifications: left off: small tags and cut ends
Regarding B27, the Percent monomer is on record as 98%.

B28: N82C (conjugate)
chain: B1 chain with C7L, N82C
modifications: left off: small tags and cut ends
On to B28, for which the Percent monomer is reported as 100%.

B29: S55C (conjugate)
chain: B1 chain with C7L, S55C
modifications: left off: small tags and cut ends
Molecule B29 showed a Percent monomer of 100%.

B30: T81C (conjugate)
chain: B1 chain with C7L, T81C
modifications: left off: small tags and cut ends
Regarding B30, the Percent monomer came out at 86%.

B31: Y28C (conjugate)
chain: B1 chain with C7L, Y28C
modifications: left off: small tags and cut ends
The molecule B31 registered a Percent monomer of 92%.
